Substrate in data set [1]: CCCCC/C=C\C/C=C\C/C=C\C/C=C\CCCC(=O)O
Put plainly: purified protein. The settings on record: heme.

Substrate in data set [2]: CCCCC/C=C\C/C=C\C/C=C\C/C=C\CCCC(=O)Nc1cccc(O)c1
Put plainly: purified protein. Conditions: heme.

B1: prostaglandin endoperoxide synthase-2 (PGHS-2) (Mus musculus) (protein)
chain: ANPCCSNPCQNRGECMSTGFDQYKCDCTRTGFYGENCTTPEFLTRIKLLLKPTPNTVHYILTHFKGVWNIVNNIPFLRSLIMKYVLTSRSYLIDSPPTYNVHYGYKSWEAFSNLSYYTRALPPVADDCPTPMGVKGNKELPDSKEVLEKVLLRREFIPDPQGSNMMFAFFAQHFTHQFFKTDHKRGPGFTRGLGHGVDLNHIYGETLDRQHKLRLFKDGKLKYQVIGGEVYPPTVKDTQVEMIYPPHIPENLQFAVGQEVFGLVPGLMMYATIWLREHNRVCDILKQEHPEWGDEQLFQTSRLILIGETIKIVIEDYVQHLSGYHFKLKFDPELLFNQQFQYQNRIASEFNTLYHWHPLLPDTFNIEDQEYSFKQFLYNNSILLEHGLTQFVESFTRQIAGRVAGGRNVPIAVQAVAKASIDQSREMKYQSLNEYRKRFSLKPYTSFEELTGEKEMAAELKALYSDIDVMELYPALLVEKPRPDAIFGETMVELGAPFSLKGLMGNPICSPQYWKPSTFGGEVGFKIINTASIQSLICNNVKGCPFTSFNVQDPQPTKTATINASASHSRLDDINPTVLIKRRSTEL
By Km is commonly meant the concentration of substrate that gives half-maximal velocity. What is called kcat is the maximal rate divided by the concentration of active sites. Usually kcat/Km stands for the second-order rate constant that governs catalysis at low substrate concentration. For B1, in data set [1], the Km came out at 2.5 ± 0.4 µM, the kcat turned out to be 47 s⁻¹ and the kcat/Km came out at 1.9e+07 M⁻¹ s⁻¹.

B2: prostaglandin endoperoxide synthase-1 (PGHS-1) (Ovis aries) (protein)
chain: ADPGAPAPVNPCCYYPCQHQGICVRFGLDRYQCDCTRTGYSGPNCTIPEIWTWLRTTLRPSPSFIHFLLTHGRWLWDFVNATFIRDTLMRLVLTVRSNLIPSPPTYNIAHDYISWESFSNVSYYTRILPSVPRDCPTPMDTKGKKQLPDAEFLSRRFLLRRKFIPDPQSTNLMFAFFAQHFTHQFFKTSGKMGPGFTKALGHGVDLGHIYGDNLERQYQLRLFKDGKLKYQMLNGEVYPPSVEEAPVLMHYPRGIPPQSQMAVGQEVFGLLPGLMLYATIWLREHNRVCDLLKAEHPTWGDEQLFQTARLILIGETIKIVIEEYVQQLSGYFLQLKFDPELLFGAQFQYRNRIAMEFNQLYHWHPLMPDSFRVGPQDYSYEQFLFNTSMLVDYGVEALVDAFSRQPAGRIGGGRNIDHHILHVAVDVIKESRVLRLQPFNEYRKRFGMKPYTSFQELTGEKEMAAELEELYGDIDALEFYPGLLLEKCHPNSIFGESMIEMGAPFSLKGLLGNPICSPEYWKASTFGGEVGFNLVKTATLKKLVCLNTKTCPYVSFHVPDPRQEDRPGVERPPTEL
Turning to B2, in data set [2], the Km stood at 15 ± 1 µM, the kcat turned out to be 22 ± 1 s⁻¹ and the catalytic efficiency (kcat/Km) was found to be 1.5e+06 ± 1e+06 M⁻¹ s⁻¹. Also, the Km in data set [1] was determined as 3.4 ± 0.6 µM.

(Values after paper PMC2797370.)
